Biological target: recombinant full-length RACK1 protein (ITC) (human) (UniProt P63244)
Assay: ITC; LARP4 peptide (400 μM; 300 μM for 600–625) injected into RACK1 (40 μM; 30 μM) in the cell; iTC200; 298K; 20 mM HEPES, 300 mM NaCl, 10% glycerol, 1 mM DTT pH 7.5; triplicate

For “HsLARP4 peptide 612–637 (from UniProt Q71RC2-1 612-637)”, the Kd was 2100 nM, the dH was -8.6 kcal/mol and the stoichiometry N was 0.9.

Source: doi:10.1101/2024.11.01.621267
